{"source": "patent US20050113284A1", "about": "“Drug for regenerating tissue and vessel and method therefor” (priority 2001, published 2005)", "molecules": {"B1": {"name": "C260: MERMUC bait protein, C-terminal 260 amino acids of cytoplasmic region; amino acids 244-503 of SEQ ID NO: 10 (protein, listed as Homo sapiens)", "chain": "VKASSTSDPPALPDSTEAKPHITEVTASAETLSTAGTTESAAPHATVGTPLPTNSATEREVTAPGATTLSGALVTVSRNPLEETSALSVETPSYVKVSGAAPVSIEAGSAVGKTTSFAGSSASSYSPSEAALKNFTPSETPTMDIATKGPFPTSRDPLPSVPPTTTNSSRGTNSTLAKITTSAKTTMKPPTATPTTARTRPTTDVSAGENGGFLLLRLSVASPEDLTDPRVAERLMQQLHRELHAHAPHFQVSLLRVRRG"}, "B2": {"name": "C260AC53: MERMUC bait protein, 53 amino acids deleted from the C-terminus of C260; amino acids 244-450 of SEQ ID NO: 10 (protein, listed as Homo sapiens)", "chain": "VKASSTSDPPALPDSTEAKPHITEVTASAETLSTAGTTESAAPHATVGTPLPTNSATEREVTAPGATTLSGALVTVSRNPLEETSALSVETPSYVKVSGAAPVSIEAGSAVGKTTSFAGSSASSYSPSEAALKNFTPSETPTMDIATKGPFPTSRDPLPSVPPTTTNSSRGTNSTLAKITTSAKTTMKPPTATPTTARTRPTTDVSA"}, "B3": {"name": "del-4: MERMUC cytoplasmic region peptide, amino acids 244 to 450 of SEQ ID NO: 10 (protein, listed as Homo sapiens)", "chain": "B2 chain"}}, "key": {"[1]": {"target": "T1, HGF receptor c-Met β chain (Homo sapiens, UniProt P08581)", "T1 construct": "expressed in transfected cells; host or cells: yeast AH109 strain (library prey plasmid, human kidney cDNA library, CLONTECH)", "T1 sequence (P08581 1300-1390)": "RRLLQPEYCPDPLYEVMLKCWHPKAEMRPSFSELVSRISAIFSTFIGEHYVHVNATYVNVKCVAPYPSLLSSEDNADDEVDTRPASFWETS", "test": "Yeast two-hybrid binding of MERMUC bait proteins to c-Met prey (C-terminal 91 amino acids)", "settings": "prey clone No. 3-309 (C-terminal 91 amino acids of human c-Met)", "procedure": "The present examination was performed using the previously reported yeast two-hybrid system (references are described above) according to conventional method and the experimental protocols provided with the reagents. […]\nThe binding ability of MERMUC bait protein derived from each of the bait vectors to the HGF receptor c-Met β chain was analyzed by the yeast two-hybrid system described above. […]\nEach of the bait vectors was cointroduced into yeast AH109 strain with human HGF receptor c-Met prey vector (comprising DNA encoding the C-terminal 91 amino acids of the c-Met; Example 1). The binding ability of each of the bait proteins (randomly selected 10 amino acids of the human MERMUC C-terminal region) to the C-terminal region of human c-Met β chain was analyzed by the yeast two-hybrid system similar to the aforementioned Example."}, "MERMUC self-association [2]": {"target": "T2, MERMUC self-association (Homo sapiens, UniProt Q8N307)", "T2 construct": "human MERMUC (full-length; full)/β-galΔα; β-galΔω (E. coli β-galactosidase residues 1-789); β-galΔα (E. coli β-galactosidase lacking residues 12-42); expressed in transfected cells; host or cells: CHO cells (A5); CHO-K1 cells (A6); pcDNA3 vectors", "T2 sequence (Q8N307 with tags, fused parts or gaps R136E/DEL182-352/L354P/T442I/D493H limits assumed)": "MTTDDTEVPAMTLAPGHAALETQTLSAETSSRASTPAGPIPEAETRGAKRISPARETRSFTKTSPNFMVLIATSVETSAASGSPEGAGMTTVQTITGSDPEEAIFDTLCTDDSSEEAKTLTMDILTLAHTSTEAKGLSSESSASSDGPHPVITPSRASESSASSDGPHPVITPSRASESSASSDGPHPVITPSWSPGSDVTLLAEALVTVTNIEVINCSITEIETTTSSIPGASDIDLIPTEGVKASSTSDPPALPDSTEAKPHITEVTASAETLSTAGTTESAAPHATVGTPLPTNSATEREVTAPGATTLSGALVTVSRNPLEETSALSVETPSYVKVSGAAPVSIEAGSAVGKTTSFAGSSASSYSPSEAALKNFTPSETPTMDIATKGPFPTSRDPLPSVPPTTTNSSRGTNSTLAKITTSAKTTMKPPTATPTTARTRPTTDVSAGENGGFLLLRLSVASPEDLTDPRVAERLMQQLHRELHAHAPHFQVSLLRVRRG", "test": "Suppression of MERMUC self-association by MERMUC cytoplasmic region peptides (β-gal activity, CHO-K1 cells)", "format": "cell-based", "settings": "compared among del-1 to del-4; FIG. 16", "text": "(§1) To validate this prediction and at the same time synthesize a MERMUCMERMUC peptide that is able to suppress MERMUC self-association through the binding to the MERMUC self-association region, the following 4 types of peptides each corresponding to a part of MERMUC cytoplasmic region were synthesized by the method described later: • del-1: amino acid sequence from amino acids 244 to 345 of SEQ ID NO: 10; • del-2: amino acid sequence from amino acids 244 to 380 of SEQ ID NO: 10; • del-3: amino acid sequence from amino acids 244 to 415 of SEQ ID NO: 10; and • del-4: amino acid sequence from amino acids 244 to 450 of SEQ ID NO: 10.\n(§2) Each of the cDNA obtained by PCR was digested with HindIII and XhoI and inserted into the HindIII/XhoI site of pcDNA3 vector to obtain an expression vector expressing each of the human MERMUC cytoplasmic region fragments (del-1 to del-4). […]\n(§3) Intracellular β-Galactosidase activity of the recombinant cells was measured using Gal-Screen System (Applied Biosystems) according to the accompanying protocol 48 hr after plasmid transfection. […]"}, "MERMUC self-association [3]": {"target": "T3, MERMUC self-association (Homo sapiens, UniProt Q8N307, D493H/DEL182-352/L354P/R136E/T442I)", "T3 construct": "human MERMUC (full-length; full)/β-galΔα; β-galΔω (E. coli β-galactosidase residues 1-789); β-galΔα (E. coli β-galactosidase lacking residues 12-42); expressed in transfected cells; host or cells: CHO cells (A5); CHO-K1 cells (A6); pcDNA3 vectors", "T3 sequence (Q8N307 with tags, fused parts or gaps R136E/DEL182-352/L354P/T442I/D493H limits assumed)": "T2 sequence (Q8N307 with tags, fused parts or gaps R136E/DEL182-352/L354P/T442I/D493H limits assumed)", "test": "Suppression of MERMUC self-association by MERMUC cytoplasmic region peptides (β-gal activity, CHO-K1 cells)", "format": "cell-based", "settings": "various concentrations of del-4; FIG. 18", "text": "as §1, §2, §3"}, "[4]": {"tested_on": "binding of MERMUC and HGF receptor c-Met", "test": "Suppression of MERMUC binding to HGF receptor c-Met by MERMUC cytoplasmic region peptides (β-gal activity, CHO-K1 cells)", "format": "cell-based, human"}, "MAP kinase (Erk)": {"tested_on": "MAP kinase (Erk)", "test": "Recovery of HGF-induced MAP kinase activation in MERMUC/293 cells (Western blotting)", "format": "cell-based, human", "settings": "MERMUC expressing MERMUC/293 cells transfected with del-4 expression vector vs mock", "procedure": "The del-4 protein expression vector produced above was added to Tet-Off/MERMUC expressing recombinant cells (MERMUC/293 cells) (produced in Example 2) and cultured at 37° C. for 48 hr for transfection using GeneJammer Transfection Reagent (STRATAGENE) according to the accompanying protocol.\nCells were similarly transfected with pcDNA3 vector [mock] that lack the cDNA encoding del-4 instead of the del-4 expression vector as a control.\nThe cells were stimulated with human recombinant HGF (CALBIOCHEM), and cell lysate was prepared according to conventional method immediately after the stimulation to evaluate the activation level of MAP kinase (also referred to as Erk).\nThe cell lysate was separated by SDS-PAGE, and then subjected to Western blotting according to conventional method using anti-phosphorylated MAP kinase polyclonal antibody (Phospho-p44/42 MAP kinase (Thr202/Thr204) antibody; Cell Signaling Technology) to determine the MAP kinase activation level based on the obtained signal intensity."}}}
{"molecule": "B1", "values": [{"measurement": "binding activity to the HGF receptor c-Met β chain", "setting": "[1]", "result": "possessed the binding activity"}]}
{"molecule": "B2", "values": [{"measurement": "binding activity to the HGF receptor c-Met β chain", "setting": "[1]", "result": "completely lost the binding activity"}]}
{"molecule": "B3", "values": [{"measurement": "suppression of MERMUC self-association", "setting": "MERMUC self-association [2]", "result": "strongest suppression"}, {"measurement": "suppression of MERMUC self-association, dose dependence", "setting": "MERMUC self-association [3]", "result": "increased in del-4 dosage-dependent manner"}, {"measurement": "decrease in the binding of MERMUC and HGF receptor c-Met", "setting": "[4]; compared among del-1 to del-4, FIG. 17", "result": "greatest decrease"}, {"measurement": "suppression of the binding of MERMUC and HGF receptor c-Met, dose dependence", "setting": "[4]; various concentrations of del-4, FIG. 18", "result": "increased in del-4 dosage-dependent manner"}, {"measurement": "phosphorylated MAP kinase level after HGF stimulation", "setting": "MAP kinase (Erk)", "result": "a significant level of phosphorylated MAP kinase was observed"}]}
